# Patent publication US20180002421A1 (INSERM INSTITUT NATIONAL DE LA SANTA ET DE LA RECHERCHE …, published 2018)
# T1: orexin receptor type 1 (OX1R), recombinant, stably expressed on HEK cells (human, UniProt O43613 1-425)
# T1 construct: whole, on cells; also called HEK-OX1R; hypocretin receptor type 1
# T1 sequence (looked up): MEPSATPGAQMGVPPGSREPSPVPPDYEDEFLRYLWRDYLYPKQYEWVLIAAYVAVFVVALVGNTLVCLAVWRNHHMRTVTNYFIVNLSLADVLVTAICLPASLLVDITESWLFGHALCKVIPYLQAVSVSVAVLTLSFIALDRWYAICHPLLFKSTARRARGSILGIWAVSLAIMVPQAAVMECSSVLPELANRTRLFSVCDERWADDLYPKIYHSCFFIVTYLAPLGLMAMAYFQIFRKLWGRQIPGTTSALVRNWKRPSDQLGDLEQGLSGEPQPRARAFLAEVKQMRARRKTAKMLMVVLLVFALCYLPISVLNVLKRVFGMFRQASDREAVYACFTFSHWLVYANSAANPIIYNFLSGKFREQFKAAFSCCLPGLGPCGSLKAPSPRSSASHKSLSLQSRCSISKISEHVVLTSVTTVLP
# B1: C2 antibody (antibody, V domains shown)
# VH: EVQLVESGGSLVKPGGSLRLSCAASGFTFSNSYMNWVRQAPGKGLEWISSIYGSSRYIDYADFVKGRFTISRDNATNSLYLQMNSLRAEDTAVYYCVRSSSYYGSGMDVWGRGTLVTVSS
# VL: QSVLTQPASVSGSPGQSITISCAGTSSDVGGYGSVSWYQQHPGKAPKLMIYYDSYRPSGVSNRFSGSKSGNTASLTISGLQAEDEADYYCSSNTNSSTRVFGGGTKLAVLG
# notes: Human antibody from phage display; also called anti-OX1R antibody C2
# Target: T1, orexin receptor type 1 (OX1R), …
# Assay: competitive inhibition of 125I-OxA binding to HEK-OX1R cells
binder,measurement,value
B1,IC50,~5 µM
